Measurements taken from patent publication US20190060430A1 (published 2019).

How the values were obtained:
Test in all cases: cytokine release
[1] = molecular target: T1, PLAC1 peptide on HLA-A*02:01 (human)
T1 peptide: CSIDWFMVTVHP

[2] = molecular target: T2, PLAC1 peptide on HLA-A*02:01 (human)
T2 peptide: SIDWFMVTV

[3] = molecular target: T3, PLAC1 peptide on HLA-A*02:01 (human)
T3 peptide: VLCSIDWFM

Measured: binding result

B1: TCRCD8-mPL#12 (TCR, V domains shown)
Valpha: GDQVEQSPSALSLHEGTGSALRCNFTTTMRAVQWFQQNSRGSLINLFYLASGTKENGRLKSTFNSKESYSTLHIRDAQLEDSGTYFCAAVNTNTGKLTFGDGTVLTVKP
Vbeta: SVLLYQKPNRDICQSGTSLKIQCVADSQVVSMFWYQQFQEQSLMLMATANEGSEATYESGFTKDKFPISRPNLTFSTLTVNNARPGDSSIYFCSSRTPNTGQLYFGEGSKLTVL
recognises: [1] | [2] | [3]

B2: TCRCD8-mPL#17 (TCR, V domains shown)
Valpha: QQQVRQSPQSLTVWEGETAILNCSYEDSTFNYFPWYQQFPGEGPALLISIRSVSDKKEDGRFTIFFNKREKKLSLHITDSQPGDSATYFCAPNNRIFFGDGTQLVVKP
Vbeta: EAAVTQSPRNKVAVTGGKVTLSCNQTNNHNNMYWYRQDTGHGLRLIHYSYGAGSTEKGDIPDGYKASRPSQENFSLILELATPSQTSVYFCASLGYNYAEQFFGPGTRLTVL
recognises: [1] | [2] | [3]

B3: TCRCD8-mPL#2 (TCR, V domains shown)
Valpha: GDSVTQTEGQVTVSESKSLIINCTYSATSIGYPNLFWYVRYPGEGLQLLLKVITAGQKGSSRGFEATYNKEATSFHLQKASVQESDSAVYYCALSDSNYQLIWGSGTKLIIKP
Vbeta: DPKIIQKPKYLVAVTGSEKILICEQYLGHNAMYWYRQSAKKPLEFMFSYSYQKLMDNQTASSRFQPQSSKKNHLDLQITALKPDDSATYFCASSPDNSGNTLYFGEGSRLIVV
recognises: [1] | [2] | [3]

B4: TCRCD8-mPL#11 (TCR, V domains shown)
Valpha: GDSVTQTEGPVTVSESESLIINCTYSATSIAYPNLFWYVRYPGEGLQLLLKVITAGQKGSSRGFEATYNKETTSFHLQKASVQESDSAVYYCALGLGYKLTFGTGTSLLVDP
Vbeta: DPKIIQKPKYLVAVTGSEKILICEQYLGHNAMYWYRQSAKKPLEFMFSYSYQKLMDNQTASSRFQPQSSKKNHLDLQITALKPDDSATYFCASSGDNSGNTLYFGEGSRLIVV
recognises: [1] | [2] | [3]

B5: TCRCD8-mPL#8 (TCR, V domains shown)
Valpha: TQTVSQSDAHVTVFEGDSVELRCNYSYGGSIYLSWYIQHHGRGLQFLLKYYSGNPVVQGVNGFKAEFSKSDSSFHLRKASVHWSDSAVYFCAVSAGGYKVVFGSGTRLLVSP
Vbeta: NTKITQSPRYLILGRANKSLECEQHLGHNAMYWYKQSAEKPPELMFLYNLKQLIRNETVPSRFIPECPDSSKLLLHISAVDPEDSAVYFCASSPGGAEQFFGPGTRLTVL
recognises: [1] | [2] | [3]

B6: TCRCD8-mPL#14 (TCR, V domains shown)
Valpha: TQTVSQSDAHVTVFEGDSVELRCNYSYGGSIYLSWYIQHHGHGLQFLLKYYSGNPVVQGVNGFEAEFSKSDSSFHLRKASVHWSDSAVYFCAVSSGGYKVVFGSGTRLLVSP
Vbeta: NTKITQSPRYLILGRANKSLECEQHLGHNAMYWYKQSAEKPPELMFLYNLKQLIRNETVPSRFIPECPDSSKLLLHISAVDPEDSAVYFCASSQGGTEVFFGKGTRLTVV
recognises: [1] | [2] | [3]

B7: TCRCD8-mPL#19 (TCR, V domains shown)
Valpha: GDSVIQMQGQVTLSENDFLFINCTYSTTGYPTLFWYVQYSGEGPQLLLQVTTANNKGSSRGFEATYDKGTTSFHLQKTSVQEIDSAVYYCAMSDASGSWQLIFGSGTQLTVMP
Vbeta: EAAVTQSPRSKVAVTGGKVTLSCHQTNNHDYMYWYRQDTGHGLRLIHYSYVADSTEKGDIPDGYKASRPSQENFSLILELASLSQTAVYFCASSPDRPSYNSPLYFAAGTRLTVT
recognises: [1] | [2] | [3]
